Patent US20260103496A1, “NEUREGULIN AND USE THEREOF” (ZENSUN (SHANGHAI) SCIENCE & TECHNOLOGY, CO., LTD., priority 2022, published 2026)
Several values for one entry are separate records, joined by “and”; a condition that tells them apart may be missing. Equal values may be shown once.

Tested on: subjects with chronic systolic heart failure
Experiment: Phase III clinical trial of recombinant human neuregulin for injection on cardiac function (LVESVI/LVEDVI), with enriched-subgroup analyses
Format: in vivo
Conditions: for average improvement in LVEDVI from baseline, enriched population compared with overall (general) population / average improvement in LVESVI from baseline, enriched population compared with overall (general) population: Day 30 after the administration
Method: Example 1: A Multi-Center, Randomized, Double-Blind, Placebo-Controlled and Standard Treatment-Based Phase III Clinical Trial to Evaluate the Effect of Recombinant Human Neuregulin for Injection on Cardiac Function of Subjects with Chronic Systolic Heart Failure
In this example, a multi-center, randomized, double-blind, placebo-controlled study was conducted based on standard treatment to evaluate the effects of recombinant human neuregulin for injection on the cardiac function of male patients with NT-proBNP ≤1700 pg/ml and female patients with NT-proBNP ≤4000 pg/ml, and to confirm its efficacy and safety.
A multicenter, randomized, double-blind, placebo-controlled study was conducted based on standard treatment.
Experimental group: recombinant human neuregulin for injection+standard basic treatment drugs (β receptor blocker, ACEI/ARB/ARNI, aldosterone receptor antagonist, etc.).
• 2.1 Age is 18-75 years old, regardless of gender; • 2.2 heart failure has been definitely diagnosed for 3 months or more, and the condition is stable at present, with NYHA II-III grade and left ventricular ejection fraction (LVEF)≤40%; • 2.3 male Nt-proBNP ≤1700 pg/ml, female Nt-proBNP ≤4000 pg/ml; • 2.4 After receiving standard basic treatment drugs for heart failure for 3 months, the target dose or maximum tolerated dose has been reached for more than 1 month, or the dose has not been changed within 1 month; • 2.5 Understand and sign the informed consent form.
Specification: Neucardin, 61 amino acids constitute EGF-like functional domain of Neuegulin-1β2 isomer, with molecular weight of 7054 Dal (1 μg=0.14 nmol); 250 μg/piece. • Dosage Form: Powder Injection • Administration Route: Intravenous Drip • Appearance: freeze-dried block or powder.
5. Data Collection: Evaluating the Effectiveness and Safety During the Screening Period, 30 Days and 90 Days after Administration.
This example was carried out in many clinical research centers in China at the same time. 154 cases were actually enrolled, 78 cases in the Neuregulin experimental group and 76 cases in the placebo group. A total of 147 cases (73 cases in the experimental group and 74 cases in the placebo group) finally achieved the main end points.
Through statistical analysis of the experimental results from Example 1, the inventors investigated, in this Example, the response rate of Neuregulin in improving LVESVI (by more than 13 mL/m^2) in an enriched population. The enriched population refers to patients with a baseline LVESVI ≥135 mL/m^2, accounting for approximately 41% of the total studied population.
Through statistical analysis of the results from Example 1, the inventors investigated, in this Example, the response rate of Neuregulin in improving both LVESVI and LVEDVI (both exceeding 20 mL/m^2) in individual patients of the enriched population.

[1] = 30 days after administration, P<0.05 vs placebo
[2] = baseline LVESVI ≥135 mL/m^2, listed as neuregulin
[3] = enriched population, baseline LVESVI ≥135 mL/m^2
[4] = individual subject, Day 30 vs baseline, FAS

B1: Neuregulin: 61 amino acids constitute EGF-like functional domain of Neuegulin-1β2 isomer, molecular weight 7054 Dal; SEQ ID NO: 1 (protein)
chain: SHLVKCAEKEKTFCVNGGECFMVKDLSNPSRYLCKCPNEFTGDRCQNYVMASFYKAEELYQ
30-day data, compared with baseline
  patients with LVESVI reduction: 63%
30 D
  ΔLVESVI: −5.62 ± 18.99 ml/m^2
90 D, P=0.0128
  ΔLVESVI: −5.23 ± 17.12 ml/m^2
30 days after administration
  improvement rate: LVESVI decreased by ≥5 ml/m^2 compared with the baseline: 45.2%
  improvement rate: LVESVI decreased by ≥10 ml/m^2 compared with the baseline: 34.2%
  improvement rate: LVESVI decreased by ≥15 ml/m^2 compared with the baseline: 23.3%
  improvement rate: LVESVI decreased by ≥30 ml/m^2 compared with the baseline: 8.2%
  improvement rate: LVESVI decreased by ≥35 ml/m^2 compared with the baseline: 5.5%
  improvement rate: LVESVI decreased by ≥40 ml/m^2 compared with the baseline: 2.7%
[1]
  improvement rate: LVESVI decreased by ≥20 ml/m^2 compared with the baseline: 17.8%
  improvement rate: LVESVI decreased by ≥25 ml/m^2 compared with the baseline: 15.1%
Day 30, FAS
  Increase in LVEDVI at Day 30 compared with the baseline was more than or equal to 5 ml/m^2, n/N(%): 19/73(26.0) %
  Increase in LVEDVI at Day 30 compared with the baseline was more than or equal to 10 ml/m^2, n/N(%): 14/73(19.2) %
  Increase in LVEDVI at Day 30 compared with the baseline was more than or equal to 15 ml/m^2, n/N(%): 9/73(12.3) %
  Increase in LVEDVI at Day 30 compared with the baseline was more than or equal to 20 ml/m^2, n/N(%): 3/73(4.1) %
  Increase in LVEDVI at Day 30 compared with the baseline was more than or equal to 25 ml/m^2, n/N(%): 3/73(4.1) %
  Increase in LVEDVI at Day 30 compared with the baseline was more than or equal to 30 ml/m^2, n/N(%): 1/73(1.4) %
  Increase in LVESVI at Day 30 compared with the baseline was more than or equal to 5 ml/m^2, n/N(%): 15/73(20.5) %
  Increase in LVESVI at Day 30 compared with the baseline was more than or equal to 10 ml/m^2, n/N(%): 10/73(13.7) %
  Increase in LVESVI at Day 30 compared with the baseline was more than or equal to 15 ml/m^2, n/N(%): 5/73(6.8) %
  Increase in LVESVI at Day 30 compared with the baseline was more than or equal to 20 ml/m^2, n/N(%): 3/73(4.1) %
  Increase in LVESVI at Day 30 compared with the baseline was more than or equal to 25 ml/m^2, n/N(%): 1/73(1.4) %
  Increase in LVESVI at Day 30 compared with the baseline was more than or equal to 30 ml/m^2, n/N(%): 1/73(1.4) %
  Reduction in LVEDVI at Day 30 compared with the baseline was more than or equal to 5 ml/m^2, n/N(%): 43.8% and 32/73(43.8) %
  Reduction in LVEDVI at Day 30 compared with the baseline was more than or equal to 10 ml/m^2, n/N(%): 30.1% and 22/73(30.1) %
  Reduction in LVEDVI at Day 30 compared with the baseline was more than or equal to 15 ml/m^2, n/N(%): 21.9% and 16/73(21.9) %
  Reduction in LVEDVI at Day 30 compared with the baseline was more than or equal to 20 ml/m^2, n/N(%): 17.8% and 13/73(17.8) %
  Reduction in LVEDVI at Day 30 compared with the baseline was more than or equal to 25 ml/m^2, n/N(%): 16.4% and 12/73(16.4) %
  Reduction in LVEDVI at Day 30 compared with the baseline was more than or equal to 35 ml/m^2, n/N(%): 6.8% and 5/73(6.8) %
  Reduction in LVEDVI at Day 30 compared with the baseline was more than or equal to 40 ml/m^2, n/N(%): 5.5% and 4/73(5.5) %
Day 30, FAS, P value of 0.046 vs placebo
  Reduction in LVEDVI at Day 30 compared with the baseline was more than or equal to 30 ml/m^2, n/N(%): 13.7% and 10/73(13.7) %
Day 30 after administration, P=0.0137
  LVESVI improved compared with that before administration: 5.62 ml/m^2
Baseline LVESVI ≥135 mL/m^2
  average improvement in LVEDVI from baseline, enriched population compared with overall (general) population: greater average improvement in LVEDVI
  average improvement in LVESVI from baseline, enriched population compared with overall (general) population: greater average improvement in LVESVI
[2]
  average improvement in LVEDVI from baseline, enriched population compared with overall (general) population: better average improvements in LVESVI or LVEDVI than the neuregulin treatment group in the general population
  average improvement in LVESVI from baseline, enriched population compared with overall (general) population: better average improvements in LVESVI or LVEDVI than the neuregulin treatment group in the general population
Day 30 vs baseline, FAS
  LVESVI and LVEDVI: Simultaneous increase by more than or equal to 5 ml/m^2, n/N(%): 13/73(17.8) %
  LVESVI and LVEDVI: Simultaneous increase by more than or equal to 10 ml/m^2, n/N(%): 9/73(12.3) %
  LVESVI and LVEDVI: Simultaneous increase by more than or equal to 15 ml/m^2, n/N(%): 3/73(4.1) %
  LVESVI and LVEDVI: Simultaneous increase by more than or equal to 20 ml/m^2, n/N(%): 2/73(2.7) %
  LVESVI and LVEDVI: Simultaneous increase by more than or equal to 25 ml/m^2, n/N(%): 1/73(1.4) %
  LVESVI and LVEDVI: Simultaneous increase by more than or equal to 30 ml/m^2, n/N(%): 1/73(1.4) %
After 10-day administration, P=0.0128 at Day 90
  persistence of the LVESVI improvement effect: could be maintained until Day 90 after the administration
[3]
  response rate for a substantial improvement in LVESVI (a reduction of more than 13 mL/m^2): 50%
  response rate for both LVESVI and LVEDVI decreased by more than 20 mL/m^2, compared with placebo group: significantly higher than that in the placebo group
  response rate for both LVESVI and LVEDVI reduced by ≥20 mL/m^2, enriched population compared with overall (general) population: higher than that in the overall population
Enriched population, baseline LVESVI ≥135 mL/m^2, individual subjects
  response rate for simultaneous improvements in both LVESVI and LVEDVI greater than 20 mL/m^2: 26.5%
Enriched population, baseline LVESVI ≥135 mL/m^2, listed as neuregulin
  response rate for both LVESVI and LVEDVI reduced by ≥20 mL/m^2, enriched population compared with overall (general) population: better response rate
[4]
  LVESVI and LVEDVI: Simultaneous reduction by more than or equal to 5 ml/m^2, n/N(%): 37.0% and 27/73(37.0) %
  LVESVI and LVEDVI: Simultaneous reduction by more than or equal to 10 ml/m^2, n/N(%): 23.3% and 17/73(23.3) %
  LVESVI and LVEDVI: Simultaneous reduction by more than or equal to 15 ml/m^2, n/N(%): 19.2% and 14/73(19.2) %
  LVESVI and LVEDVI: Simultaneous reduction by more than or equal to 25 ml/m^2, n/N(%): 12.3% and 9/73(12.3) %
  LVESVI and LVEDVI: Simultaneous reduction by more than or equal to 30 ml/m^2, n/N(%): 6.8% and 5/73(6.8) %
  LVESVI and LVEDVI: Simultaneous reduction by more than or equal to 35 ml/m^2, n/N(%): 4.1% and 3/73(4.1) %
  LVESVI and LVEDVI: Simultaneous reduction by more than or equal to 40 ml/m^2, n/N(%): 1.4% and 1/73(1.4) %
Individual subject, Day 30 vs baseline, FAS, p-value 0.0048 vs placebo
  LVESVI and LVEDVI: Simultaneous reduction by more than or equal to 20 ml/m^2, n/N(%): 16.4% and 12/73(16.4) %
